Results taken from publication PMC11326647, “In vitro reconstitution reveals membrane clustering and RNA recruitment by the enteroviral AAA+ ATPase 2C” (PLOS Pathogens, 2023).

Experiments:
[1] = target: the molecule itself; experiment: mass photometry
[2] = target: the molecule itself; experiment: cryo-electron tomography (mass from the volume of segmented densities)
[3] = target: 2C (MBP removed by TEV in situ, bound to SUVs) (Poliovirus type 1 Mahoney, UniProt P03300 1128-1456); experiment: SUV co-flotation, TET fluorescence; details: protein: recombinant; tags: His6-MBP cleaved by TEV during assay; chain copies: 6; label: 5' TET on strand 1; blunt

B1: His6-MBP-tagged full-length poliovirus 2C (residues 1-329) (natural protein)
chain: GDSWLKKFTEACNAAKGLEWVSNKISKFIDWLKEKIIPQARDKLEFVTKLRQLEMLENQISTIHQSCPSQEHQEILFNNVRWLSIQSKRFAPLYAVEAKRIQKLEHTINNYIQFKSKHRIEPVCLLVHGSPGTGKSVATNLIARAIAERENTSTYSLPPDPSHFDGYKQQGVVIMDDLNQNPDGADMKLFCQMVSTVEFIPPMASLEEKGILFTSNYVLASTNSSRISPPTVAHSDALARRFAFDMDIQVMNEYSRDGKLNMAMATEMCKNCHQPANFKRCCPLVCGKAIQLMDKSSRVRYSIDQITTMIINERNRRSNIGNCMEALFQ
notes: also called MBP-2C; His6MBP-2C
B1 was tested, and the “stoichiometry N” value [1] was roughly 6.

B2: full-length poliovirus 2C, MBP tag cleaved off in the presence of liposomes (membrane-bound 2C) (natural protein)
chain: B1 chain
notes: also called full-length 2C
For B2, the “stoichiometry N” value [2] was roughly 6.

B3: dsRNA 20-mer (oligos 1+2) (dsRNA)
RNA 1: CCUCUAACCACAGUCUGAUC
RNA 2: GAUCAGACUGUGGUUAGAGG
B3: binds [3].
